# Data reported in PMC3542137, “Mycobacterium tuberculosis RecG binds and unwinds model DNA substrates with a preference for Holliday junctions”.
# T1: RecGMtb (Mycobacterium tuberculosis H37Rv, UniProt P9WMQ7 1-737)
# T1 sequence: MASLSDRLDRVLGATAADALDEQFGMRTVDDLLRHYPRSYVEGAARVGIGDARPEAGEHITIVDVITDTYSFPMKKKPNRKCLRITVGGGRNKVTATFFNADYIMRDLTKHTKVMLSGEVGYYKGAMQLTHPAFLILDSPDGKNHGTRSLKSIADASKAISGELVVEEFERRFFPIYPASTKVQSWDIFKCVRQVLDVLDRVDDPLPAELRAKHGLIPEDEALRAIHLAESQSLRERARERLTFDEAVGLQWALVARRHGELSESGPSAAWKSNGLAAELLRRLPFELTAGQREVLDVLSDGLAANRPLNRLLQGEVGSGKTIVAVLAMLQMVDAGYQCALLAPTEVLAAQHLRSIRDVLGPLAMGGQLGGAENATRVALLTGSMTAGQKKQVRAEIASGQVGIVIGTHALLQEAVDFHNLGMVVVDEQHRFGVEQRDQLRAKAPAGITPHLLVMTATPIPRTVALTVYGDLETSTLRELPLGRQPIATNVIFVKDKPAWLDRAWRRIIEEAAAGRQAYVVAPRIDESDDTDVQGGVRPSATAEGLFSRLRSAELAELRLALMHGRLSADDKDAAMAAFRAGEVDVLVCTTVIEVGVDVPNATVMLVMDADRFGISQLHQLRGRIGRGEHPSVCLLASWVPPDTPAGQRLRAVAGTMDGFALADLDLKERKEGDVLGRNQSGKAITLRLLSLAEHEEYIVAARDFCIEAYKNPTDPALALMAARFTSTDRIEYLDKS
# Columns and labels:
# RecGMtb [1] = target: T1, RecGMtb; experiment: EMSA; no poly(dI-dC); 1 uM RecG; conditions: protein: recombinant; tags: N-terminal His6 cleaved off with thrombin (pET28b); label: 32P 5' end
# RecGMtb [2] = target: T1, RecGMtb; experiment: EMSA; 5 mM EDTA, poly(dI-dC); conditions: protein: recombinant, tags: N-terminal His6 cleaved off with thrombin (pET28b), label: 32P 5' end
# RecGMtb [3] = target: T1, RecGMtb; experiment: EMSA; 5 mM EDTA, poly(dI-dC); 2 uM RecG; conditions: protein: recombinant; tags: N-terminal His6 cleaved off with thrombin (pET28b); label: 32P 5' end; bubble 1:2
binder,measurement,setting,value
TTTTTTTTTTTTTTTTTTTTTTTTTTTTTTTTTTTTTTTT (ssDNA) [poly(dT) 40 nt],binding result,RecGMtb [1],binds
5'-tailed duplex (oligos 3+2) (dsDNA) DNA 1: TTTTTTTTTTTTTTTTTTTTCGTGACATGCCGTGACTAGC DNA 2: GCTAGTCACGGCATGTCACG,binding result,RecGMtb [2]; 5' overhang 20 nt (T20),no binding
Holliday junction (substrate H) (structured_DNA) DNA 1: GACGCTGCCGAATTCTGGCTTGCTAGGACATCTTTGCCCACGTTGACCC DNA 2: TGGGTCAACGTGGGCAAAGATGTCCTAGCAATGTAATCGTCTATGACGTT DNA 3: CAACGTCATAGACGATTACATTGCTAGGACATGCTGTCTAGAGACTATCGA DNA 4: ATCGATAGTCTCTAGACAGCATGTCCTAGCAAGCCAGAATTCGGCAGCGT,binding result,RecGMtb [2],binds
lagging strand replication fork (substrate E) (structured_DNA) DNA 1: GTCGGATCCTCTAGACAGCTCCATGATCACTGGCACTGGTAGAATTCGGC DNA 2: CAACGTCATAGACGATTACATTGCTACATGGAGCTGTCTAGAGGATCCGA DNA 3: TAGCAATGTAATCGTCTATGACGTT,binding result,RecGMtb [2]; fork 1:2 2:3,binds
bubble (substrate I) (structured_DNA) DNA 1: GGGTGAACCTGCAGGTGGGCGGCTGCTCATCGTAGGTTAGTTGGTAGAATTCGGCAGCGTC DNA 2: GACGCTGCCGAATTCTACCAGTGCCTTGCTAGGACATCTTTGCCCACCTGCAGGTTCACCC,binding result,RecGMtb [3],binds
3'-tailed duplex (oligos 1+2) (dsDNA) DNA 1: CGTGACATGCCGTGACTAGCTTTTTTTTTTTTTTTTTTTT DNA 2: GCTAGTCACGGCATGTCACG,binding result,RecGMtb [2]; 3' overhang 20 nt (T20),no binding
